# B1: L49-sFv-bL: recombinant fusion protein: L49 anti-p97 single-chain Fv (VH-218 linker-VL) fused to r2-1 mutant E. cloacae β-lactamase, SEQ ID NO: 20 (protein)
# chain: MKYLLPTAAAGLLLLAAQPAMAEVQLQESGPSLVKPSQTLSLTCSVTGDSITSGYWNWIRKFPGNKLEYMGYISDSGITYYNPSLKSRISITRDTSKNQYYLQLNFVTAEDTATYNCARRTLATYYAMDYWGQGTSVTVSSGSTSGSGKPGSGEGSTKGDFVMTQTPLSLPVSLGDQASISCRASQSLVHSNGNTYLHWYLQKPGQSPKLLIYRVSNRFSGVPDRFSGSGSGTDFTLKISRVEAEDLGVYFCSQSTHVPPTFGGGTKLEIKRTPVSEKQLAEVVANTITPLMKAQSVPGMAVAVIYQGKPHYYTFGKADIAANKPVTPQTLFELGSISKTFTGVLGGDAIARGEISLDDAVTRYWPQLTGKQWQGIRMLDLATYTAGGLPLQVPDEVTDNASLLRFYQNWQPQWKPGTTRLYANASIGLFGALAVKPSGMPYEQAMTTRVLKPLKLDHTWINVPKAEEAHYAWGYRDGKAVRVSPGMLDAQAYGVKTNVQDMANWVMANMAPENVADASLKQGIALAQSRYWRIGSMYQGLGWEMLNWPVEANTVVETSFGNVALAPLPVAEVNPPAPPVKASWVHKTGSTGGFGSYVAFIPEKQIGIVMLANTSYPNPARVEAAYHILEALQTSEFE
# Key:
# [1] = Clearance of conjugate from the blood of nude mice; assay type: in vivo
# Protocol: FIGS. 9A and 9B depict pharmacokinetics of L49-sFv-bL in nude mice (3 animals/group). L49-sFv-bL was injected intravenously, tissues were removed and extracted at the indicated times, and the β-lactamase activity was determined using nitrocefin as a substrate. FIG. 9A depicts clearance of L49-sFv-bL from the blood. Injected dose was 4 mg/kg. FIG. 9B depicts L49-sFv-bL levels in subcutaneous 3677 melanoma tumors and in normal tissues. Injected dose was 1 mg/kg.
# (§1) Conjugate Localization. Subcutaneous 3677 melanoma tumors were established in female athymic nu/nu mice (8-12 weeks old, Harlan Sprague-Dawley, Indianapolis, Ind.) by transplanting tumors that had been previously passaged as previously described (Kerr et al., Cancer Res., 55:3558-3563 (1995)). Tumor bearing mice were injected i.v. with L49-sFv-bL (1 or 4 mg mAb component/kg) or with L49-Fab'-bL (1.8 mg mAb component/kg). At various time intervals, the mice were anesthetized, bled through the orbital plexus, and sacrificed. Tissues were removed and homogenized in PBS containing 15 μg/ml aprotinin (2 mL/g tissue). To the homogenate was added 50 mM sodium phosphate containing 100 mM NaCl at pH 11.2 (10 ml/g tissue), and the suspension was mixed. After 20 min at room temperature, 3M sodium phosphate at pH 7.0 was added (2 ml/g tissue), and the mixture was mixed and centrifuged.
# (§2) Quantification of conjugate concentrations was accomplished using a direct enzyme immunoassay. Polystyrene 96-well microtiter plates were coated with an affinity-purified rabbit polyclonal antisera to wild type E. cloacae bL (1 μg/ml), and were then blocked with specimen diluent (Genetic Systems Corp.). Serially diluted tissue extracts or purified samples (L49-sFv-bL as a standard for the fusion protein samples, L49-Fab'-bL as a standard for the L49-Fab'-bL samples) were added to the wells and allowed to bind for 3 h at room temperature. The plates were washed and developed by the addition of 0.1 ml of nitrocefin (O'Callaghan et al., Antimicrobial Agents and Chemotherapy, 1:283-288 (1972)) at 0.1 mM in PBS containing 1% dimethylformamide. Absorbance measurements were read in an ELISA plate reader using a 490 nm filter with 630 nm as the reference wavelength.
# (§3) In Vivo Localization. Biodistribution studies of L49-sFv-bL and L49-Fab'-bL were carried out in nude mice bearing subcutaneous (s.c.) 3677 melanoma tumor xenografts. The conjugates were injected i.v., and at various time points tissues were removed and extracted under alkaline conditions to disrupt antigen-antibody interactions. The samples were then trapped a polyclonal antiserum to bL, and bL activity was measured using nitrocefin as a colorimetric indicator (O'Callaghan et al, Antimicrobial Agents and Chemotherapy, 1:283-288 (1972)).
# [2] = Tissue distribution of immunoconjugates in nude mice bearing s.c. 3677 melanoma xenografts; assay type: in vivo
# Protocol: as §1, §2, §3
# 3677 melanoma xenografts = test: In vivo therapy of established s.c. 3677 melanoma xenografts; set-up: species or system nude mice
# Protocol: FIGS. 10A-10D. Therapeutic effects of L49-sFv-bL/CCM combinations in nude mice (six mice/group) with subcutaneous 3677 melanoma xenografts. Conjugates were injected, followed at various times by CCM (arrows on the X-axis). […] FIG. 10A. L49-sFv-bL (1 mg/kg/injection) 12 h before CCM. FIG. 10B. L49-sFv-bL (1 mg/kg/injection) 24 h before CCM. FIG. 10C. L49-sFv-bL (4 mg/kg/injection) 24 h before CCM. FIG. 10D. L49-sFv-bL (4 mg/kg/injection) 48 h before CCM.
# In Vivo Therapy Experiments. 3677 tumor-bearing mice (subcutaneous implants, six animals/group, average tumor volume 130 mm^3) were injected with L49-sFv-bL (i.v., 7-8 days post tumor implant), followed 12-48 h later by CCM using doses of fusion protein and prodrug as indicated in the Results section. Treatment with L49-sFv-bL+CCM was repeated 1 week later. Animals were monitored 1-2 times/week for body weight, general health, and tumor growth. Tumor volume was estimated using the formula: longest length×perpendicular dimension^2 /2. Cures were defined as an established tumor that, after treatment, was not palpable for ≥10 tumor volume doubling delays (≥40 days in the 3677 tumor model). Maximum tolerated doses led to less than 20% weight loss, no treatment-related deaths, and were within 50% of the dose where such events took place.
# Therapeutic Activity. In vivo therapy experiments were performed using the L49-sFv-bL/CCM combination in nude mice with established s.c. 3677 tumors. […] In the experiments reported here, conjugate treatment was initiated 7-8 days after tumor implant, at which time the tumors were approximately 130 mm^3 in volume. CCM was then administered 12, 24, or 48 h later, and the treatment protocol was repeated after 1 week. Maximum tolerated doses are defined as those that led to less than 20% weight loss, no treatment-related deaths, and were within 50% of the dose where such events took place. A tumor was considered as having been cured once it was not palpable for at least 10 tumor volume doubling times, based on the tumor growth of untreated animals (tumor volume doubling time was 4 days). If an animal was removed from the experiment because of tumor growth, the data from the entire group was no longer plotted, but the remaining animals were followed for tumor size and general health.
# [3] = L49-sFv-bL 1 mg/kg/injection, CCM 75 mg/kg/injection 12 h later
molecule,measurement,setting,value
B1,initial clearance half life t1/2 α,"[1]; blood, i.v., 4 mg/kg",0.3 h
same,terminal clearance half life t1/2 β,"[1]; blood, i.v., 4 mg/kg",2.5 h
same,clearance from the blood,"[1]; i.v., nude mice",cleared very rapidly
same,reduction of blood levels,[1]; within 24 h of conjugate administration,10^4
same,tumor/tissue ratios Blood,"[2]; 1 mg/kg i.v., 4 hrs",13
same,tumor/tissue ratios Kidney,"[2]; 1 mg/kg i.v., 4 hrs",41
same,tumor/tissue ratios Liver,"[2]; 1 mg/kg i.v., 4 hrs",52
same,tumor/tissue ratios Spleen,"[2]; 1 mg/kg i.v., 4 hrs",79
same,tumor/tissue ratios Tumor,"[2]; 1 mg/kg i.v., 4 hrs",1
same,tumor/tissue ratios Blood,"[2]; 1 mg/kg i.v., 12 hrs",66
same,tumor/tissue ratios Kidney,"[2]; 1 mg/kg i.v., 12 hrs",> 177
same,tumor/tissue ratios Liver,"[2]; 1 mg/kg i.v., 12 hrs",> 177
same,tumor/tissue ratios Spleen,"[2]; 1 mg/kg i.v., 12 hrs",> 177
same,tumor/tissue ratios Tumor,"[2]; 1 mg/kg i.v., 12 hrs",1
same,tumor/tissue ratios Blood,"[2]; 1 mg/kg i.v., 24 hrs",105
same,tumor/tissue ratios Kidney,"[2]; 1 mg/kg i.v., 24 hrs",> 70
same,tumor/tissue ratios Liver,"[2]; 1 mg/kg i.v., 24 hrs",> 70
same,tumor/tissue ratios Spleen,"[2]; 1 mg/kg i.v., 24 hrs",> 70
same,tumor/tissue ratios Tumor,"[2]; 1 mg/kg i.v., 24 hrs",1
same,tumor/tissue ratios Blood,"[2]; 4 mg/kg i.v., 12 hrs",81
same,tumor/tissue ratios Kidney,"[2]; 4 mg/kg i.v., 12 hrs",> 240
same,tumor/tissue ratios Liver,"[2]; 4 mg/kg i.v., 12 hrs",> 240
same,tumor/tissue ratios Spleen,"[2]; 4 mg/kg i.v., 12 hrs",> 240
same,tumor/tissue ratios Tumor,"[2]; 4 mg/kg i.v., 12 hrs",1
same,tumor/tissue ratios Blood,"[2]; 4 mg/kg i.v., 24 hrs",141
same,tumor/tissue ratios Kidney,"[2]; 4 mg/kg i.v., 24 hrs",> 290
same,tumor/tissue ratios Liver,"[2]; 4 mg/kg i.v., 24 hrs",> 290
same,tumor/tissue ratios Spleen,"[2]; 4 mg/kg i.v., 24 hrs",> 290
same,tumor/tissue ratios Tumor,"[2]; 4 mg/kg i.v., 24 hrs",1
same,tumor/tissue ratios Blood,"[2]; 4 mg/kg i.v., 48 hrs",150
same,tumor/tissue ratios Tumor,"[2]; 4 mg/kg i.v., 48 hrs",1
same,tumor to blood ratios,"[2]; 4 mg/kg, 24-48 h after the conjugate was administered",141-151
same,toxicity,"3677 melanoma xenografts; CCM 24 h post conjugate, both cases (FIG. 10B, 10C)",no evidence of toxicity
same,cures in the group of six mice,3677 melanoma xenografts; [3],four
same,tumor response of the remaining two animals,3677 melanoma xenografts; [3],partial regressions
same,tumor cures,"3677 melanoma xenografts; L49-sFv-bL 1 mg/kg/injection, CCM 125 and 175 mg/kg/injection 12 h later, repeated after 1 week",all of the animals
same,tumors cured,"3677 melanoma xenografts; L49-sFv-bL 1 mg/kg/injection, increased CCM dose 24 h later (FIG. 10B)",the majority of tumors were cured
same,"animals cured, of six","3677 melanoma xenografts; L49-sFv-bL 4 mg/kg/injection, CCM 275 mg/kg/injection 48 h later",three
same,tumors cured,"3677 melanoma xenografts; L49-sFv-bL 4 mg/kg/injection, CCM 24 h later (FIG. 10C)",the majority of tumors were cured
same,tumor regressions,"3677 melanoma xenografts; L49-sFv-bL 4 mg/kg/injection, CCM 48 h later (FIG. 10D)",all of the mice
same,toxicity,"3677 melanoma xenografts; L49-sFv-bL then CCM 75, 125 or 175 mg/kg/injection 12 h later",no apparent toxicities

# From patent US6132722A, “Recombinant antibody-enzyme fusion proteins” (Bristol-Myers Squibb Company, priority 1998, dated 2000)
